# Experimental data as given in article PMC10245032 (EMBO Molecular Medicine, 2023).
# B1: mAb 3764 (recombinant human IgG1) (antibody, V domains shown)
# VH: QVQLVESGGGVVQPGRSLRLSCAASGFTFSSYGMHWVRQAPGKGLEWVAVIWYDGSYKSYIESVKGRFTISRDNSKNTLYLQMNSLRVEDTAVYYCALGYSSGQGTLDNWGQGTLVTVSS
# VL: DVVMTQSPLSLAVTLGQPASISCRSTQSLVYSDGNTYLNWFQQRPGQSPRRLIYKVSNRDSGVPDRFSGSESGTDFTLKISRVEAEDVGLYYCMQGTHWPWTFGQGTKVEIK
# notes: heavy chain variable region of mAb 3764 (IGHV3-33); human IgG1 constant region from the IGHG1 expression vector; kappa chain variable region of mAb 3764; human Ig kappa constant region from the IGKC expression vector; IgG1; Somatic mutations H.N56Y and H.Y58S against germline are already part of the antibody; also called C‐linker specific mAb 3764; source: HEK293T, co-transfected, purified from …
# B2: 3764 Fab (Fab, V domains shown)
# VH: B1 VH
# VL: B1 VL
# notes: mAb 3764 heavy chain variable region upstream of human IgG1-CH1; mAb 3764 kappa chain variable region upstream of human IgK constant domain; also called mAb 3764 Fab; source: HEK293F, transiently co-transfected, purified (Kappa-select, MonoS cation exchange, Superdex 200 SEC)
# Legend:
# Conditions in all cases: both partners purified
# [1] = molecular target: T1, PfCSP C‐linker peptide (aa 273–310) (Plasmodium falciparum NF54, UniProt P19597); assay: ELISA; antigen coated on 384-well plates overnight at 4°C in PBS (full-length PfCSP 0.4 μg/ml, C-CSP 1 μg/ml, peptides 2 μg/ml); mAb from 4 μg/ml in PBS, RT 1.5 h; detected with anti-human IgG-HRP; AUC
# T1 construct: Plasmodium falciparum NF54 circumsporozoite protein, C-linker, aa 273–310; source: synthetic peptide (PSL Peptide Specialty Laboratories GmbH)
# T1 chain: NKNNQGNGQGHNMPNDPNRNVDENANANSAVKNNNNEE
# [2] = molecular target: T2, PfCSP C‐terminal linker peptide P2 (PfCSP 281–294) (Plasmodium falciparum NF54); assay: as above
# T2 construct: Plasmodium falciparum NF54 circumsporozoite protein (PfCSP), aa 281–294 of the C-linker; One of 14 overlapping peptides (P1-P14); also called C‐CSP peptide; source: synthetic peptide (PSL Peptide Specialty Laboratories GmbH)
# T2 chain: QGHNMPNDPNRNVD
# [3] = molecular target: T3, full‐length PfCSP (FL‐CSP), NF54 (Plasmodium falciparum NF54); assay: as above
# T3 construct: Plasmodium falciparum NF54 circumsporozoite protein, called full-length; source: FL-CSP expressed in E. coli by the EMBL core facility; a biotinylated NF54 FL-CSP was expressed in HEK293F and purified (HisTrap HP, SEC)
# [4] = molecular target: T4, PfCSP C‐terminal domain (C‐CSP), NF54 (Plasmodium falciparum NF54, UniProt P19597); assay: as above
# T4 construct: Plasmodium falciparum NF54 circumsporozoite protein, C-terminal domain made of the C-linker (aa 273–310) and the α-TSR domain (aa 311–384); also called C‐CSP peptide; PfCSP C terminus; source: E. coli, by the EMBL protein expression and purification core facility
# [5] = molecular target: T2, PfCSP C‐terminal linker peptide P2 …; assay: crystal structure; 3764 Fab and PfCSP 281-294 peptide mixed 1:3; 19% isopropanol, 19% PEG 4000, 5% glycerol, 0.095 M sodium citrate pH 5.6; 2.36 Å
Binder,binding result [1],binding result [2],binding result [3],binding result [4],binding result [5]
B1,binds,binds,binds,binds,
B2,,,,,binds
